Reference: patent publication US20120003180A1 (TEXAS A AND M UNIVERSITY SYSTEM, published 2012)

Legend:
[1] = biological target: T1, α5β1 integrin protein, covalently immobilised on the optical biosensor cuvette; assay: optical biosensor (IAsys), α5β1 immobilised, DV free in solution
T1 construct: The methods call the immobilised protein 'the α5β1 protein' and also 'immobilized α5'; The results speak of α5β1 integrin; also called α5β1 protein; immobilized α5 integrin
Experimental: (§1) Binding assays were carried out using an optical biosensor (IAsys; Affinity Sensors, UK) as described¹⁰⁸. In brief, to covalently bind the α5β1 protein, designated as an acceptor, onto the surfaces of a sensor, carboxylate groups present on the surface were activated by injection of a 1:1 mixture of 0.1 M N-hydroxysuccinimide and 0.4 M N-Ethyl-3-(3-dimethylaminopropyl) carbodiimide (Pierce). The acceptor dissolved in phosphate buffered saline (PBS) was then allowed to bind to the activated surface until a response plateau was reached. The residual active groups were blocked by an injection of 100 μL of 1 M Tris-HCl (pH 8.5).
(§2) The binding of DV to α5β1 was also investigated. DV's DGR sequence was mutated to AGR (D3904A) to determine whether this could disrupt DV binding to α5β1 as measured with optical biosensor (FIG. 18A).

[2] = biological target: T1, α5β1 integrin protein, covalently …; assay: optical biosensor (IAsys), α5β1 immobilised, DV free in solution; Kd from Koff/Kon
Experimental: as §1, §2

B1: Human perlecan Domain V (DV), recombinant, with C-terminal 6×His tag (ligand)
chain: EIKITFRPDSADGMLLYNGQKRVPGSPTNLANRQPDFISFGLVGGRPEFRFDAGSGMATIRHPTPLALGHFHTVTLLRSLTQGSLIVGDLAPVNGTSQGKFQGLDLNEELYLGGYPDYGAIPKAGLSSGFIGCVRELRIQGEEIVFHDLNLTAHGISHCPTCRDRPCQNGGQCHDSESSSYVCVCPAGFTGSRCEHSQALHCHPEACGPDATCVNRPDGRGYTCRCHLGRSGLRCEEGVTVTTPSLSGAGSYLALPALTNTHHELRLDVEFKPLAPDGVLLFSGGKSGPVEDFVSLAMVGGHLEFRYELGSGLAVLRSAEPLALGRWHRVSAERLNKDGSLRVNGGRPVLRSSPGKSQGLNLHTLLYLGGVEPSVPLSPATNMSAHFRGCVGEVSVNGKRLDLTYSFLGSQGIGQCYDSSPCERQPCQHGATCMPAGEYEFQCLCRDGFKGDLCEHEENPCQLREPCLHGGTCQGTRCLCLPGFSGPRCQQGSGHGIAESDWHLEGSGGNDAPGQYGAYFHDDGFLAFPGHVFSRSLPEVPETIELEVRTSTASGLLLWQGVEVGEAGQGKDFISLGLQDGHLVFRYQLGSGEARLVSEDPINDGEWHRVTALREGRRGSIQVDGEELVSGRSPGPNVAVNAKGSVYIGGAPDVATLTGGRFSSGITGCVKNLVLHSARPGAPPPQPLDLQHRAQAGANTRPCPSHHHHHH
notes: Cloned from HUVEC cDNA into pSecTag2A or pCepPu, secreted from 293 cells and purified on Ni beads; also called endorepellin; rhDV
[1]
  koff: 0.72 s⁻¹
[2]
  Kd: 160 nM
